Values joined by “and” are separate entries in the source; they are usually repeats but may differ in a detail not shown here. Equal values may be shown once. Values belong to the binder of their own block, whether it stands above or below them. No end group written: not given here. *: point of attachment. Biotin = O=C1N[C@H]2[C@H](CS[C@H]2CCCCC(=O)*)N1
Assays:
[1] = target: T1, His6-p97 WT (human, UniProt P55072 1-806); experiment: pull-down
[2] = target: T1, His6-p97 WT; experiment: mass photometry
[3] = target: T1, His6-p97 WT; experiment: SPR

T1 sequence (P55072 whole entry): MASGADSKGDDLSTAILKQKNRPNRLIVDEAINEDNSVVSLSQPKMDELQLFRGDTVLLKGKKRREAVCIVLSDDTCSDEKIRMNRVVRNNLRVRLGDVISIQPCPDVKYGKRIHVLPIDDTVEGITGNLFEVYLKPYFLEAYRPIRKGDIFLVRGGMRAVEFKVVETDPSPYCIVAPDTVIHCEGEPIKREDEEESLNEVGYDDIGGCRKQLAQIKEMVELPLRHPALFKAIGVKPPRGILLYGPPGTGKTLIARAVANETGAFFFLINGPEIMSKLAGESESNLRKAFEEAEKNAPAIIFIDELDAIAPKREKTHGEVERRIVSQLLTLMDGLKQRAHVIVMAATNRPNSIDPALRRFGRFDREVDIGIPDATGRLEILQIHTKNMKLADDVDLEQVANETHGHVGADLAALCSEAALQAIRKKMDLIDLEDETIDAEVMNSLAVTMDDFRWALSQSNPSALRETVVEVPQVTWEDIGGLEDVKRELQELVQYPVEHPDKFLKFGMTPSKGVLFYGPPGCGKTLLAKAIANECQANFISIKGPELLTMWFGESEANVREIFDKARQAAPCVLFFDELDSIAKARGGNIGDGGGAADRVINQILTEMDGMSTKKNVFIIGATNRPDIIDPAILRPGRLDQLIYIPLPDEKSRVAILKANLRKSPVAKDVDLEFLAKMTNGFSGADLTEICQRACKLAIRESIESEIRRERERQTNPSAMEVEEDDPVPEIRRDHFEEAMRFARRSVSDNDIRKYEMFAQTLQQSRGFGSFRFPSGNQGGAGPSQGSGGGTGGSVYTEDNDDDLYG

binding result [1]: binds
Binder: Biotin-PTPDLEEKRAKLAEAAERRQKEAAS [VIM peptide (SVIP, aa14-39)]

binding result [1]: binds
Binder: Biotin-NLTSEELRKRREAYFEKQQQK [VBM peptide (ATXN3, aa275-295)]

stoichiometry N [2]: 2 VCF1 molecules per p97 hexamer and 3 VCF1 molecules per p97 hexamer
Kd [3]: ~10 nM
B1: Strep-HA-VCF1 WT (natural protein)
chain: not shown

Reference: article doi:10.1101/2023.07.25.550448 (bioRxiv, 2023)
